For the series, the target named is T1, elafin (AS-61641, Anaspec).
T1 chain: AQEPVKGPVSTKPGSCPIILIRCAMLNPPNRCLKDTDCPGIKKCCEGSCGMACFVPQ

B1: recombinant cathepsin S (1183-CY-010, R&D Systems) (protein)
chain: QLHKDPTLDHHWHLWKKTYGKQYKEKNEEAVRRLIWEKNLKFVMLHNLEHSMGMHSYDLGMNHLGDMTSEEVMSLMSSLRVPSQWQRNITYKSNPNRILPDSVDWREKGCVTEVKYQGSCGACWAFSAVGALEAQLKLKTGKLVSLSAQNLVDCSTEKYGNKGCNGGFMTTAFQYIIDNKGIDSDASYPYKAMDQKCQYDSKYRAATCSKYTELPYGREDVLKEAVANKGPVSVGVDARHPSFFLYRSGVYYEPSCTQNVNHGVLVVGYGDLNGKEYWLVKNSWGHNFGEEGYIRMARNKGNHCGIASFPSYPEI
For B1, the “ERK1/2 phosphorylation and ProCOL1A2 expression in colonic fibroblasts” value was “reversed elafin-mediated inhibition of ERK1/2 phosphorylation and ProCOL1A2 expression in colonic fibroblasts”.

For the origin of these results see patent US20230405078.
